These results are taken from US20150337336A1 (PHYTOGENE, published 2015).

The series deals with the molecule itself. The series is described as follows: X-ray crystal structure at 2.15 Å, space group C2, 3 chains per asymmetric unit; homodimer seen in the crystal. The method, then: Crystals of mutant cinnamic acid decarboxylase FDC (K190E) in complex with 3-hydroxyl cinnamic acid were grown by the vapor diffusion method. Commercial screening Kit (Hampton research, Qiagen, Emerald Biosystems) was used for screening crystallization conditions. Different volume ratio of protein and reservoir were tested for crystallization. Hanging drops containing a 1:1, 1:2, or 2:1 mixture of protein (5-10 mg/ml) and crystallization buffer (10% (w/v) polyethylene glycol (PEG) 6000, 5% (w/v) 2-methyl-2,4-pantanediol (MPD), 0.1 M HEPES, pH 7.5, and 2 mM DTT) were maintained at 4° C. In particular, well diffracted crystals were grown in 7-11% (w/v) polyethylene glycol (PEG) 6000, 3% (w/v) 2-methyl-2,4-pantanediol (MPD), pH 6.5-7.5, and 2 mM DTT with 0.1% 3-hydroxyl cinnamic acid. Crystal conditions were further improved by adding 0.01M MnCl2, 0.5% (w/v) polyvinylpyrrolidone K15, 0.2M NDSB-201 or 2% (w/v) benzamidine hydrochloride as an additive.
The FDC(K190E) crystals grew in space group C2 with 3 chains per asymmetric unit. Unit cell dimensions for the crystal were a=249.51 Å, b=120.67 Å, c=158.49 Å, β=94.9°; Diffraction data were collected from single crystals mounted in a cryoloop and flash frozen in a nitrogen stream at 100 K and reduced with the HKL suite. Crystals were diffracted at 2.15 Å resolution. […]

B1: mutant cinnamic acid decarboxylase FDC (K190E) (enzyme)
chain: MRKLNPALEFRDFIQVLKDEDDLIEITEEIDPNLEVGAIMRKAYESHLPAPLFKNLKGASKDLFSILGCPAGLRSKEKGDHGRIAHHLGLDPKTTIKEIIDYLLECKEKEPLPPITVPVSSAPCKTHILSEEKIHLQSLPTPYLHVSDGGKYLQTYGMWILQTPDKKWTNWSIARGMVVDDKHITGLVIEPQHIRQIADSWAAIGKANEIPFALCFGVPPAAILVSSMPIPEGVSESDYVGAILGESVPVVKCETNDLMVPATSEMVFEGTLSLTDTHLEGPFGEMHGYVFKSQGHPCPLYTVKAMSYRDNAILPVSNPGLCTDETHTLIGSLVATEAKELAIESGLPILDAFMPYEAQALWLILKVDLKGLQALKTTPEEFCKKVGDIYFRTKVGFIVHEIILVADDIDIFNFKEVIWAYVTRHTPVADQMAFDDVTSFPLAPFVSQSSRSKTMKGGKCVTNCIFRQQYERSFDYITCNFEKGYPKGLVDKVNENWKRYGYK
notes: It was purified by the same process as FDC1: an N-terminal 6-His/SUMO tag was cleaved off by hydrolase; It was crystallised in complex with the small molecule 3-hydroxyl cinnamic acid; also called FDC1 K190E mutant; FDC mutant (K190E)
As to B1, the binding result is listed as “binds”.
